According to the Immune Epitope Database (IEDB):
pKd: −log10 of the molar value.

Key:
HLA-A*02:01 [1] = test: IEDB peptide-MHC binding, purified MHC/competitive/radioactivity; filed as Kd, often an IC50 or EC50 that approximates it; ≥ and ≤ were set here for values at or beyond the usual limits of such assays
HLA-A*02:02 = test: as above
HLA-A*02:03 = test: as above
HLA-A*02:06 = test: as above
HLA-A*03:01 [2] = test: as above; conditions: source organism: Vaccinia virus WR
HLA-A*11:01 [3] = test: as above; conditions: source organism: Vaccinia virus WR
HLA-A*31:01 [4] = test: as above; conditions: source organism: Vaccinia virus WR
HLA-A*33:01 = test: as above; conditions: source organism: Vaccinia virus WR
HLA-A*68:01 = test: as above; conditions: source organism: Vaccinia virus WR
HLA-A*68:02 = test: as above
HLA-B*07:02 = test: as above; conditions: source organism: Vaccinia virus WR
HLA-B*35:01 = test: as above; conditions: source organism: Vaccinia virus WR
HLA-B*51:01 = test: as above; conditions: source organism: Vaccinia virus WR
HLA-B*53:01 = test: as above; conditions: source organism: Vaccinia virus WR
HLA-B*54:01 = test: as above; conditions: source organism: Vaccinia virus WR
HLA-A*32:01 = test: as above
HLA-B*08:01 = test: as above
HLA-B*15:03 = test: as above
HLA-B*15:01 = test: as above
HLA-A*02:01 [5] = test: IEDB peptide-MHC binding, purified MHC/direct/fluorescence; filed as Kd, often an IC50 or EC50 that approximates it; ≥ and ≤ were set here for values at or beyond the usual limits of such assays; conditions: source organism: Mammarenavirus lassaense
HLA-A*69:01 = test: as above; conditions: source organism: Mammarenavirus lassaense
HLA-A*03:01 [6] = test: IEDB peptide-MHC binding, purified MHC/competitive/fluorescence; filed as Kd, often an IC50 or EC50 that approximates it; ≥ and ≤ were set here for values at or beyond the usual limits of such assays; conditions: source organism: Escherichia coli 101-1
HLA-A*31:01 [7] = test: as above
HLA-A*03:01 [8] = test: IEDB peptide-MHC binding, purified MHC/direct/fluorescence; filed as Kd, often an IC50 or EC50 that approximates it; ≥ and ≤ were set here for values at or beyond the usual limits of such assays; conditions: source organism: Escherichia coli O157:H7
HLA-A*11:01 [9] = test: as above; conditions: source organism: Escherichia coli O157:H7
[10] = source organism: Vaccinia virus WR
[11] = source organism: Dengue virus 2 Jamaica/1409/1983
[12] = source organism: Lassa virus Josiah
[13] = source organism: Vaccinia virus Copenhagen
[14] = source organism: Trypanosoma cruzi

NTYLFNILY
pKd (HLA-A*02:01 [1]; [10]): 6.02 | pKd (HLA-A*02:02; [10]): 5.80 | pKd (HLA-A*02:03; [10]): 5.81 | pKd (HLA-A*02:06; [10]): 5.21 | pKd (HLA-A*03:01 [2]): 6.20 | pKd (HLA-A*11:01 [3]): 6.58 | pKd (HLA-A*31:01 [4]): 6.16 | pKd (HLA-A*33:01): 5.83 | pKd (HLA-A*68:01): 6.14 | pKd (HLA-A*68:02; [10]): 5.13 | pKd (HLA-B*07:02): ≤ 4.53 | pKd (HLA-B*35:01): 4.98 | pKd (HLA-B*51:01): 4.75 | pKd (HLA-B*53:01): 5.24 | pKd (HLA-B*54:01): 5.84

VVIAILTVV
pKd (HLA-A*02:03; [11]): 7.47 | pKd (HLA-A*02:06; [11]): 7.87 | pKd (HLA-A*68:02; [11]): 6.46

LLSRFFNMI
pKd (HLA-A*32:01; [10]): 6.15 | pKd (HLA-B*08:01; [10]): 5.79 | pKd (HLA-B*15:03; [10]): 6.09

TLNHVLALK
pKd (HLA-A*02:01 [1]; [10]): ≤ 4.11 | pKd (HLA-A*02:02; [10]): ≤ 4.11 | pKd (HLA-A*02:03; [10]): 6.55 | pKd (HLA-A*02:06; [10]): 4.85 | pKd (HLA-A*03:01 [2]): 8.61 | pKd (HLA-A*11:01 [3]): 8.89 | pKd (HLA-A*31:01 [4]): 7.44 | pKd (HLA-A*33:01): 6.18 | pKd (HLA-A*68:01): 8.38 | pKd (HLA-A*68:02; [10]): ≤ 4.11 | pKd (HLA-B*07:02): ≤ 4.11 | pKd (HLA-B*35:01): 4.98 | pKd (HLA-B*51:01): ≤ 4.11 | pKd (HLA-B*53:01): ≤ 4.11 | pKd (HLA-B*54:01): ≤ 4.11

SSMKGENVF
pKd (HLA-B*15:03; [10]): 7.33

YLFNAIETM
pKd (HLA-B*15:01; [10]): 8.85

AVVRFRTHF
pKd (HLA-B*15:03; [10]): 6.72

GVFYRPLHF
pKd (HLA-B*15:01; [10]): 8.26

KMYACKNDM
pKd (HLA-B*15:03; [10]): 7.37

FVFSTSFYL
pKd (HLA-A*02:01 [5]): ≥ 9.00 | pKd (HLA-A*69:01): 8.92 | pKd (HLA-A*02:02; [12]): 8.82 | pKd (HLA-A*02:03; [12]): 7.29 | pKd (HLA-A*02:06; [12]): 7.86 | pKd (HLA-A*68:02; [12]): 9.29

RLYSIFLIF
pKd (HLA-A*32:01; [13]): 8.16 | pKd (HLA-B*08:01; [13]): 4.80 | pKd (HLA-B*15:01; [13]): 8.47 | pKd (HLA-B*15:03; [13]): 9.80

SPVMSGNSY
pKd (HLA-B*15:03; [10]): 6.44

ISTKLSCHY
pKd (HLA-B*15:01; [10]): 7.76

FMASPENVI
pKd (HLA-B*15:03; [10]): 8.20

HTFTAPIAK
pKd (HLA-A*03:01 [6]): 6.95 | pKd (HLA-A*31:01 [7]; source organism: Escherichia coli 101-1): 7.72

RVIYPANQK
pKd (HLA-A*03:01 [8]): 7.46 | pKd (HLA-A*11:01 [9]): 8.16 | pKd (HLA-A*31:01 [7]; source organism: Escherichia coli O157:H7 str. Sakai): 7.14

FANYGFTLA
pKd (HLA-A*02:01 [1]; [14]): 5.82 | pKd (HLA-A*02:02; [14]): 5.70 | pKd (HLA-A*02:03; [14]): 7.34 | pKd (HLA-A*02:06; [14]): 9.35 | pKd (HLA-A*68:02; [14]): 5.79

ELLRPTTLV
pKd (HLA-A*02:02; [14]): 5.39 | pKd (HLA-A*02:03; [14]): 5.86 | pKd (HLA-A*02:06; [14]): 5.68 | pKd (HLA-A*68:02; [14]): 7.06

LIRPKILSM
pKd (HLA-B*08:01; [10]): 9.26 | pKd (HLA-B*15:01; [10]): 7.98

AANCFGQHV
pKd (HLA-B*15:03; [10]): 7.66

LLCKLSCAV
pKd (HLA-B*15:01; [10]): 6.38

RSQVGVGVF
pKd (HLA-B*15:01; source organism: Dengue virus 1 Brazil/97-11/1997): 7.59

LMVSGPNVV
pKd (HLA-B*15:03; [10]): 8.42

IISSSTLYF
pKd (HLA-B*15:01; [13]): 8.97
